The target of the test is Trx-NVL^167–216-(GS)3-eYFP (human) (UniProt O15381). Description: MST; 50 nM Trx-NVL^167–216-(GS)3-eYFP with a 1:1 dilution series of unlabeled MTR4 KOW; 50 mM Hepes/NaOH pH 7.5, 150 mM NaCl, 5% glycerol, 0.5 mM TCEP; MST power 20%, LED power 20%; triplicates.
Chain of Trx-NVL^167–216-(GS)3-eYFP (human) (O15381 167-216): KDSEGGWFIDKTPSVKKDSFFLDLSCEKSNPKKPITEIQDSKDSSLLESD

B1: MTR4-KOW (domain or fragment)
chain: HKPKYCLPFLQPGRLVKVKNEGDDFGWGVVVNFSKKSNVKPNSGELDPLYVVEVLLRCSKESLKNSATEAAKPAKPDEKGEMQVVPVLVHLLSAISSVRLYIPKDLRPVDNRQSVLKSIQEVQKRFPDGIPLLDPIDDMGIQD
The term Kd denotes the concentration at which binding is half-saturated. For the molecule B1, the Kd came to 1 µM.

The values above are taken from article PMC6662825.
